Holding throughout (test): SPR
In one experiment the target is T1, PTPRD ECD-Fc (human, UniProt P23468 21-1265).
T1 sequence: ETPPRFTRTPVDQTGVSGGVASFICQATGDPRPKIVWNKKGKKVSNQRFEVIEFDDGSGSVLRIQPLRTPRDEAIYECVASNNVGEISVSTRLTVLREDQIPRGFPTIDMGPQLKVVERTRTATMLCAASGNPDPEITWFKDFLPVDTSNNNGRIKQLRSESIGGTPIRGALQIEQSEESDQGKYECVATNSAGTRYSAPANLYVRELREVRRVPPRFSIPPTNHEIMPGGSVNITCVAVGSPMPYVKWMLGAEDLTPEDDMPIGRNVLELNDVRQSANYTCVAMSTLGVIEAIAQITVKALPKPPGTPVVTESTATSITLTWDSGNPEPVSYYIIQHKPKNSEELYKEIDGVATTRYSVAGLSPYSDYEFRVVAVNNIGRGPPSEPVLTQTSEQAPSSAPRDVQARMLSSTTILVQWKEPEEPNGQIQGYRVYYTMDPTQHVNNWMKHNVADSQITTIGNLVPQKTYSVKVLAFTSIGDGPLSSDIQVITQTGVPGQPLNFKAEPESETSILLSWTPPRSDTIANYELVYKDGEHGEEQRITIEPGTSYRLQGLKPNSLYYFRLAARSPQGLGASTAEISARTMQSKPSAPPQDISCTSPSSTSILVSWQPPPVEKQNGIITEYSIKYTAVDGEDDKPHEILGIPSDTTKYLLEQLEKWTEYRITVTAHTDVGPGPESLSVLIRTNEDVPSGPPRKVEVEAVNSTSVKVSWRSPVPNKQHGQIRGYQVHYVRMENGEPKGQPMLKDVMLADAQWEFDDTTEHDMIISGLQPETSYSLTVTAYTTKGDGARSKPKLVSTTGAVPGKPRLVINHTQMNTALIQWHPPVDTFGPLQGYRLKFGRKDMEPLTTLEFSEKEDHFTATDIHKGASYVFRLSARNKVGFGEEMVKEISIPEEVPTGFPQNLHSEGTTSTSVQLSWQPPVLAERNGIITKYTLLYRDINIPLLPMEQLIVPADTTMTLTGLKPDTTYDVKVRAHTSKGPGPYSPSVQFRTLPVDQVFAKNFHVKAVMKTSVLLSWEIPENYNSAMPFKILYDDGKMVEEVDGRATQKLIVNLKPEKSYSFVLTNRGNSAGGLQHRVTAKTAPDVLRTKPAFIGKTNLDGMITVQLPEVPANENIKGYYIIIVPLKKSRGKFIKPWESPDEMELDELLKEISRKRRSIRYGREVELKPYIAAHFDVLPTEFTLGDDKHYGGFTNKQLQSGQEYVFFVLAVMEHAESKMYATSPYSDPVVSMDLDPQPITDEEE

The next experiment addresses T2, PTPRF ECD-Fc (human, UniProt P10586 30-1263).
T2 sequence: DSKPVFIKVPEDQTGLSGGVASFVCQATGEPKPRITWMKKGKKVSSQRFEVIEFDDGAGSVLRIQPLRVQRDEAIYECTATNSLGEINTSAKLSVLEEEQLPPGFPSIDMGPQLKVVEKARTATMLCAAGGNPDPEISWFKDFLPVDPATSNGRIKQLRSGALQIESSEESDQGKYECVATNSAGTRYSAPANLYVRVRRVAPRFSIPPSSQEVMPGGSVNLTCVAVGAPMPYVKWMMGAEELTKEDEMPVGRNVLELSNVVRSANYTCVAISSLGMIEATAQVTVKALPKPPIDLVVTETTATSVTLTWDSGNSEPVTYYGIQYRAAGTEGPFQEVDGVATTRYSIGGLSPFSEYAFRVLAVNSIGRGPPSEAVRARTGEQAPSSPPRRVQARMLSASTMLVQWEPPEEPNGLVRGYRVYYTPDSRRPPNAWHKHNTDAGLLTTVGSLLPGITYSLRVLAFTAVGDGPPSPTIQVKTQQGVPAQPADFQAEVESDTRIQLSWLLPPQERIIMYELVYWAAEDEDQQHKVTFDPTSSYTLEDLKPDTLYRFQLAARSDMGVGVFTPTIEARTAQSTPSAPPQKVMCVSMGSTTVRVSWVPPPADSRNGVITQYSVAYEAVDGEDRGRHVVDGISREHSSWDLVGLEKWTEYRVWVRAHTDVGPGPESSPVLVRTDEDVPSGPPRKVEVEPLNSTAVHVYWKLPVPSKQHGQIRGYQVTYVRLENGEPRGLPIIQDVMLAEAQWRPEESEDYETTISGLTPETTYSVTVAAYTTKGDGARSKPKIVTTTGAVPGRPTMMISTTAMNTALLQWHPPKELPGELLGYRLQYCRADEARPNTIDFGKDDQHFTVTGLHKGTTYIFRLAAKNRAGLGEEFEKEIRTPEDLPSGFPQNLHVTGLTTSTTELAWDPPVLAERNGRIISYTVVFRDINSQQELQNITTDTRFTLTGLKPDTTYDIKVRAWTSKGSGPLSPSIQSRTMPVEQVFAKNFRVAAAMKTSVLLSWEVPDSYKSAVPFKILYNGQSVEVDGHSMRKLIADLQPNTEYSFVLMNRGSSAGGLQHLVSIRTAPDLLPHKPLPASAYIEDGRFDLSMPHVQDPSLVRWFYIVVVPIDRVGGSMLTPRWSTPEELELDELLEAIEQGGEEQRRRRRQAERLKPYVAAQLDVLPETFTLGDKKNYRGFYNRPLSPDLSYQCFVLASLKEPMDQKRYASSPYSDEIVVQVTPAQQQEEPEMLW

The target in another experiment is T3, PTPRS ECD-Fc (human, UniProt Q13332 30-1282).
T3 sequence: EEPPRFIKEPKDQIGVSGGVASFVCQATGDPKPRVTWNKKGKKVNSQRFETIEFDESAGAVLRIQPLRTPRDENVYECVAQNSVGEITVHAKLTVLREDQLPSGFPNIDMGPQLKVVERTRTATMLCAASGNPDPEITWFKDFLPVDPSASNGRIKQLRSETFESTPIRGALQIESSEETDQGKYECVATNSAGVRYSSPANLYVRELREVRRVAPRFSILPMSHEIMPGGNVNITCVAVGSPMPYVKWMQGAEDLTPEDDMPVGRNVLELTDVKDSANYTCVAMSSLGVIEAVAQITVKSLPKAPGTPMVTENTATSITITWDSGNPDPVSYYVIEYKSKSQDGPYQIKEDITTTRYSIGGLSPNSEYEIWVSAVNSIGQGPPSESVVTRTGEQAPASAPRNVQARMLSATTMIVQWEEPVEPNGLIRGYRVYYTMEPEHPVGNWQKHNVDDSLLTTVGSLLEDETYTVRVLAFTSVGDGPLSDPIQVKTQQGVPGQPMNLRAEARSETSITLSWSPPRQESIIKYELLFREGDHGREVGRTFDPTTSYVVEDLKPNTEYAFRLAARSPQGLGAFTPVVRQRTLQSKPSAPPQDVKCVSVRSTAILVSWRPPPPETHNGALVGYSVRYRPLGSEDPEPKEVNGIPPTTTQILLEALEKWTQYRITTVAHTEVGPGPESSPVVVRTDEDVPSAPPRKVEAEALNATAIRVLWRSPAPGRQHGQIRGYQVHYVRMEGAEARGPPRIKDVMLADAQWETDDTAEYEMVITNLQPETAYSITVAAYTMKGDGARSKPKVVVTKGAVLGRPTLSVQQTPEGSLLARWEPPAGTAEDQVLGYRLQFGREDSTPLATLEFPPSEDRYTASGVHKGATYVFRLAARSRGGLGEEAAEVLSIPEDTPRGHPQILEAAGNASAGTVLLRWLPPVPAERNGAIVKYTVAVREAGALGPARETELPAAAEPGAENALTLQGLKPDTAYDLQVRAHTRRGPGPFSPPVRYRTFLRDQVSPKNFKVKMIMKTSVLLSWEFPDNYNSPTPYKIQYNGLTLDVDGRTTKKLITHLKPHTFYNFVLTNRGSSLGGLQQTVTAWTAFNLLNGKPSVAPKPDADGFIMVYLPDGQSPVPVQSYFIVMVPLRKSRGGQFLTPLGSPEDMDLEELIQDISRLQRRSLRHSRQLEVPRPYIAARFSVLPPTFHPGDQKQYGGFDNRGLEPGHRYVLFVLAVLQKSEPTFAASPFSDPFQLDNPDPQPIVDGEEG

For a further experiment, the target named is T4, ICAM5 ECD-Fc (human, UniProt Q9UMF0 32-835, biotin on the AviTag (as SPR ligand)).
T4 sequence: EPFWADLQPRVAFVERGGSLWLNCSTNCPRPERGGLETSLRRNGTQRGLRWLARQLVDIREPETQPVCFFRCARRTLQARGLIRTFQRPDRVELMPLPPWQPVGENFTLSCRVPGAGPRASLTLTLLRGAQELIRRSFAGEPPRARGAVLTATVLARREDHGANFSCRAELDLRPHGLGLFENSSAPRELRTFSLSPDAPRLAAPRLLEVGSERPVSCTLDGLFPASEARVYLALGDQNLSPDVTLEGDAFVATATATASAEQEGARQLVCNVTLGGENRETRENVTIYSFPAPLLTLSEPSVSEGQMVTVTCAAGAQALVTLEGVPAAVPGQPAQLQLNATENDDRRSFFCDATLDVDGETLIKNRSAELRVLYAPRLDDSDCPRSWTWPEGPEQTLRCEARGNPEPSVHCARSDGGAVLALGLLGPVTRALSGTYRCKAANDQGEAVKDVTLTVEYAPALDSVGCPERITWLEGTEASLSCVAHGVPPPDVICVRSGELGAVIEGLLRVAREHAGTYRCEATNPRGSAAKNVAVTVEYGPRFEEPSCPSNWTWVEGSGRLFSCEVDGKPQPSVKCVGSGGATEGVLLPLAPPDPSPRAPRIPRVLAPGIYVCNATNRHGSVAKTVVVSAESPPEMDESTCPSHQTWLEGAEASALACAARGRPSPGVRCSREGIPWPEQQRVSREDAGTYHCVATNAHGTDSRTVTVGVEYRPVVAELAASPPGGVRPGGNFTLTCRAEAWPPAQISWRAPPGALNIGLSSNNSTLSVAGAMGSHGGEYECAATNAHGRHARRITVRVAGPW

Another experiment concerns the target LTF-Fc (human, UniProt P02788, biotin on the AviTag (as SPR ligand)).

From paper PMC7440162 (Cell, 2020) come the findings set out here.

Sequence of LTF-Fc (P02788 20-710): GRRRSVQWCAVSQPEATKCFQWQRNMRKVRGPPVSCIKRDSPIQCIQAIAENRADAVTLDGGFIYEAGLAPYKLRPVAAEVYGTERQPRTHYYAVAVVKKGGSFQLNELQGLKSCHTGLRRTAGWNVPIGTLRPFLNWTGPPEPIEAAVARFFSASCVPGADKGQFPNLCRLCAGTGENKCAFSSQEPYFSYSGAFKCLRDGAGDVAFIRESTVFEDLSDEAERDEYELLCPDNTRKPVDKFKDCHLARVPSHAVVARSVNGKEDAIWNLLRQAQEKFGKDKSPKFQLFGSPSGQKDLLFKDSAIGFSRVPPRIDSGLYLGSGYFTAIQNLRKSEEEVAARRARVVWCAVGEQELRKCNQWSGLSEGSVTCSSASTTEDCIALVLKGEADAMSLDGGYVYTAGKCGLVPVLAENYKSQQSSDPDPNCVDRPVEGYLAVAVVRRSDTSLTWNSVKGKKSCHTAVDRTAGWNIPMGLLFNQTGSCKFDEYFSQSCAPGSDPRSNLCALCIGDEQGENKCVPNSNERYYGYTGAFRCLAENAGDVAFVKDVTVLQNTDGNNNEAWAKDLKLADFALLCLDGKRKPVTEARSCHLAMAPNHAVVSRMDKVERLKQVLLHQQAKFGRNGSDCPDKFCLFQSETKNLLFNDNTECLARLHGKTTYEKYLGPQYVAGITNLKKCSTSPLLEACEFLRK

B1: SALM3 ECD-Fc (Fc fusion)
chain: CPLPCVCQNLSESLSTLCAHRGLLFVPPNVDRRTVELRLADNFIQALGPPDFRNMTGLVDLTLSRNAITRIGARAFGDLESLRSLHLDGNRLVELGTGSLRGPVNLQHLILSGNQLGRIAPGAFDDFLESLEDLDLSYNNLRQVPWAGIGAMPALHTLNLDHNLIDALPPGAFAQLGQLSRLDLTSNRLATLAPDPLFSRGRDAEASPAPLVLSFSGNPLHCNCELLWLRRLARPDDLETCASPPGLAGRYFWAVPEGEFSCEPPLIARHTQRLWVLEGQRATLRCRALGDPAPTMHWVGPDDRLVGNSSRARAFPNGTLEIGVTGAGDAGGYTCIATNPAGEATARVELRVLALPHGGNSSAEGGRPGPSDIAASARTAAEGEGTLESEPAVQVTEVTATSGLVSWGPGRPADPVWMFQIQYNSSEDETLIYRIVPASSHHFLLKHLVPGADYDLCLLALSPAAGPSDLTATRLLGCAHFSTLPASPLCHALQAHVLGGTL
modifications: biotin on the AviTag (as SPR ligand)
With B1, the binding result with PTPRD ECD-Fc, in the experiment with PTPRF ECD-Fc and in the experiment with PTPRS ECD-Fc was “binds” in each case.

B2: SALM5 ECD-Fc (Fc fusion)
chain: QICPKRCVCQILSPNLATLCAKKGLLFVPPNIDRRTVELRLADNFVTNIKRKDFANMTSLVDLTLSRNTISFITPHAFADLRNLRALHLNSNRLTKITNDMFSGLSNLHHLILNNNQLTLISSTAFDDVFALEELDLSYNNLETIPWDAVEKMVSLHTLSLDHNMIDNIPKGTFSHLHKMTRLDVTSNKLQKLPPDPLFQRAQVLATSGIISPSTFALSFGGNPLHCNCELLWLRRLSREDDLETCASPPLLTGRYFWSIPEEEFLCEPPLITRHTHEMRVLEGQRATLRCKARGDPEPAIHWISPEGKLISNATRSLVYDNGTLDILITTVKDTGAFTCIASNPAGEATQIVDLHIIKLPHLLNSTNHIHEPDPGSSDISTSTKSGSNTSSSNGDTKLSQDKIVVAEATSSTALLKFNFQRNIPGIRMFQIQYNGTYDDTLVYRMIPPTSKTFLVNNLAAGTMYDLCVLAIYDDGITSLTATRVVGCIQFTTEQDYVRCHFMQSQFLGGTM
modifications: biotin on the AviTag (as SPR ligand)
In the case of B2, the binding result in the experiment with PTPRD ECD-Fc, in the experiment with PTPRF ECD-Fc and with PTPRS ECD-Fc was “binds” throughout.

B3: human ISLR2 ECD-Fc (Fc fusion)
chain: SCPEPCACVDKYAHQFADCAYKELREVPEGLPANVTTLSLSANKITVLRRGAFADVTQVTSLWLAHNEVRTVEPGALAVLSQLKNLDLSHNFISSFPWSDLRNLSALQLLKMNHNRLGSLPRDALGALPDLRSLRINNNRLRTLAPGTFDALSALSHLQLYHNPFHCGCGLVWLQAWAASTRVSLPEPDSIACASPPALQGVPVYRLPALPCAPPSVHLSAEPPLEAPGTPLRAGLAFVLHCIADGHPTPRLQWQLQIPGGTVVLEPPVLSGEDDGVGAEEGEGEGDGDLLTQTQAQTPTPAPAWPAPPATPRFLALANGSLLVPLLSAKEAGVYTCRAHNELGANSTSIRVAVAATGPPKHAPGAGGEPDGQAPTSERKSTAKGRGNSVLPSKPEGKIKGQGLAKVSILGETETEPEEDTSEGEEAEDQILADPAEEQRCGNGDPSRYVSNHAFNQSAELKPHVFELGVIALDVAEREARVQLTPLAARWGPGPGGAGGAPRPGRRPLRLLYLCPAGGGAAVQWSRVEEGVNAYWFRGLRPGTNYSVCLALAGEACHVQVVFSTKKELPS
modifications: biotin on the AviTag (as SPR ligand)
B3: the binding result with ICAM5 ECD-Fc and in the experiment with LTF-Fc was “binds” throughout.
